From US20130177981A1

How the values were obtained:
Mcl-1, Q07820 [1] = biological target: T1, Mcl-1, Q07820; assay: competition FP; displacement of the labeled Bak BH3 peptide
T1 chain: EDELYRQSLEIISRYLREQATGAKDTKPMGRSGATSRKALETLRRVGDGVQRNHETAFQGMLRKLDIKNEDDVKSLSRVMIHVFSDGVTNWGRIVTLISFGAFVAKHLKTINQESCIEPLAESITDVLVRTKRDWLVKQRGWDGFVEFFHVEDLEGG

Mcl-1, Q07820 [2] = biological target: T1, Mcl-1, Q07820; assay: direct-binding FP with the BODIPY-labeled analogue
Bcl-xL, Q07817 = assay: direct-binding FP with the BODIPY-labeled analogue
Bcl-xL, Q07817, sequence (Q07817 1-209): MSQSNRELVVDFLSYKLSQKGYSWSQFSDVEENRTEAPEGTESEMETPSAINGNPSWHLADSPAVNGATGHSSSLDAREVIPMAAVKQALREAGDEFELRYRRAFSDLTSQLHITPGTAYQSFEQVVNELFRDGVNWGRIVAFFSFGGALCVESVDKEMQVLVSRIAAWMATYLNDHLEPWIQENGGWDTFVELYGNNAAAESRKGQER

**Q.** For EEQWAREIGAQLRRMADDLNAQYERR (peptide, UniProt Q9BXH1 130-155, looked up, modifications not checked) [Puma BH3 α-peptide 1′, Q9BXH1 130-155], which Ki (Mcl-1, Q07820 [1]) is on record?
**A.** < 10 nM

**Q.** For EEQWAREIGAQLRRMADDLNAQYERR (peptide, UniProt Q9BXH1 130-155, looked up, modifications not checked) [BODIPY-TMR-labeled analog of Puma BH3 α-peptide 1′, Q9BXH1 130-155], which Kd (Mcl-1, Q07820 [2]) is on record?
**A.** < 2 nM

**Q.** For EEQWAREIGAQLRRMADDLNAQYERR (peptide, UniProt Q9BXH1 130-155, looked up, modifications not checked) [BODIPY-TMR-labeled analog of Puma BH3 α/β-peptide 4′, Q9BXH1 130-155], which Kd (Bcl-xL, Q07817) is on record?
**A.** 2.2 nM

**Q.** And the Kd (Mcl-1, Q07820 [2])?
**A.** 110 nM
